Assay results taken from patent US20050130227A1 (MUNIN, published 2005).

Legend:
[1] = biological target: T1, nuclear membrane protein nucleoporin p62 (mouse, UniProt Q63850 2-526); experiment: GST pull-down from mouse C1-1D nuclear extract, Western blot
T1 construct: Negative control protein; detected with anti-Nucleoporin p62 monoclonal clone 53; also called nuclear envelope protein Nucleoporin p62
T1 sequence (looked up): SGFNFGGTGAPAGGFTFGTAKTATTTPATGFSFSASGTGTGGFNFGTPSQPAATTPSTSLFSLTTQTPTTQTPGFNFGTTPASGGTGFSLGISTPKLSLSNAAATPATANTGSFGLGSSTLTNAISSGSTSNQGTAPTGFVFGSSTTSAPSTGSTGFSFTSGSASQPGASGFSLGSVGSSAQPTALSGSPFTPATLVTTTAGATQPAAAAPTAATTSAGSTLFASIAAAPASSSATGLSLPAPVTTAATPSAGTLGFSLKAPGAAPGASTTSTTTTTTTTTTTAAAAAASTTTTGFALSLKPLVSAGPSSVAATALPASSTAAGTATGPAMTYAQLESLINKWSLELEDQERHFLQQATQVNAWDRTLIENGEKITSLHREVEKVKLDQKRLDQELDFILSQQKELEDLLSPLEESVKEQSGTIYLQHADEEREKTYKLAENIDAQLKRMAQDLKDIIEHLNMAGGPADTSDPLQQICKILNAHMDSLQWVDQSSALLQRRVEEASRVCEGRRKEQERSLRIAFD
Source text: (A) Mouse C1-1D cell nuclear extract proteins were allowed to bind to bead immobilized GST-mGPBP fusion proteins. […] The antibodies used to probe these blots were raised against TBP, The C-terminal domain of RNA polymerase II (RNA pol II CTD), Transcription Fraction IIB (TFIIB), Transcription Fraction IIF RAP30 subunit (TFIIF RAP30), P300/CAAT Binding Protein (CBP), and the negative control antibodies against the nuclear envelope protein Nucleoporin p62. The estimated molecular weight of proteins in each band (in Kd) based on electrophoretic mobility in comparison to protein size markers were shown on the right by arrows. (B) In vivo binding of mGPBP was determined by immuno-coprecipitation analyses of cell lysates. […] The antibodies raised against TBP, RNA pol II CTD, TFIIB, CBP, or HA-tag were used as probes as indicated in each blot. The estimated molecular weight of proteins in each band (in Kd) based on electrophoretic mobility in comparison to protein size markers are shown on by arrows. The migration location of the HA-mGPBP fusion protein is also shown on the right of the panel with an arrow.
Nuclear extracts were prepared as previously described (Berger and Kimmel, 1987) with minor modifications. Mouse C1-1D Cells were collected and washed with 10 volumes of PBS once. […]

[2] = biological target: T1, nuclear membrane protein nucleoporin p62; experiment: co-immunoprecipitation with anti-HA antibodies from transfected C1-1D cells, Western blot
Source text: To examine whether the in vitro complexing of GPBP with transcription factors also occurs in vivo, we performed a co-immunoprecipitation experiment using an HA-tagged mGPBP expression construct in mouse C1-1D cells. The hemagglutinin antigen (HA)-tagged (Field, 1988[2]) mGPBP eukaryotic expression construct pCDNAHA-mGPBP was generated by inserting the (HA) tag coding sequence upstream of, and in frame with, the mGPBP cDNA's ORF in pCDNA-mGPBP. Anti-HA antibodies were used to immunoprecipitate nuclear extract proteins derived from the transfected cells. As a control, nuclear extract from cells transfected with the HA expression vector containing no GPBP-encoding sequences underwent a similar immunoprecipitation procedure.

B1: recombinant GST-mGPBP fusion protein (other)
chain: MAQHDFAPAWLNFPTPPSSTKSSLNFEKHSENFSWTENRYDVSRRRHNSSDGFDSGIGRPNGGNFGRKEKNGWRTHGRNGTENINHRGGYHGGNSRSRSSIFHSGKSQGLHENSIPDNETGRKEDKRERRQFEAEDFPSLNPEYEREPNQNKSLAAGVWGLHAQTHTYPTKKISQAPLLDYPPNPKSRTPRMLVIKKGNTKDLQLSGFPVAGNLQSQPVKNGTSPSVYKGLVPKPAVPPTKPTQWKSQTKENKVGTSFSHESTYGVGNFNTFKSTAKNISPSTNSVKECNRSNSSSPVDKLNQQPRLTKLTRMRSDKKSEFLKALKRDRVEEEHEDESHAGSEKDDDSFNLHNSNTTHQERDINRNFDENEIPQENGNASIISQQIIRSSTFPQTDVLSSSLEAEHRLLKEMGWQEDSENDETCAPLTEDEMREFQVISEQLQKNGLRKNGILKNGLICDFKFGPWKNSTFKPTIENDDTETSSSDTSDDDDV
notes: also called immobilized recombinant mGPBP; bead immobilized GST-mGPBP fusion proteins; not shown: N-terminal glutathione S-transferase (GST) carrier and the vector-encoded linker of pGEX-4T-1 between GST and the insert
binding result [1]: no binding

B2: HA-tagged mGPBP (other)
chain: B1 chain
notes: Expressed from pCDNAHA-mGPBP in transfected mouse C1-1D cells; whole mGPBP ORF; also called HA-mGPBP; HA-tag fused to mGPBP; not shown: hemagglutinin antigen (HA) tag upstream of and in frame with the ORF
binding result [2]: no binding
